One block for each binder: values may come before it.
Tests used:
[1] = target: T1, murine IL-21R extracellular domain His-Flag fusion protein (murine, UniProt Q9JHX3 20-237); assay: competition ELISA: scFv mixed with biotinylated murine IL-21R-H/F, added to plate-bound 18A5 IgG (competitor); captured receptor detected with HRP-streptavidin, A450
T1 construct: Biotinylated in the ELISAs; also called mIL-21R-H/F; murine IL-21R-H/F
Protocol: Blocked plates were washed 3× with PBS, and 50 μl/well of scFv/IL-21R mixtures were transferred to the appropriate plates and incubated for 1 hr at RT. Plates were washed 5× with PBS prior to the addition of a 1:6000 dilution of horseradish peroxidase-conjugated streptavidin (Southern Biotech, Birmingham, Ala.) secondary antibody to detect bound biotinylated mIL-21R-H/F. Plates were then incubated for 1 hr at RT and washed 7× with PBS. Signal was developed using 3,3′,5,5′-tetramethylbenzidine (TMB), the reaction stopped with H₂SO₄, and the absorbance read at 450 nm on an ENVISION™ plate reader (Perkin Elmer).

[2] = target: T2, human complement component C1q (human, UniProt P02745 23-245; P02746 28-253; P02747 29-245); assay: C1q ELISA, antibody coated at 5 µg/ml, human serum 1:50
T2 construct: Native C1q in diluted human serum
Protocol: In order to determine whether cell-surface binding by anti-IL-21R antibodies is likely to lead to complement-dependent cytotoxicity (CDC), the antibodies were tested for their ability to bind to the complement component C1q in an ELISA. […] Diluted antibodies (100 μl) were coated onto a COSTAR® high-binding ELISA plate (Corning Life Sciences, Lowell, Mass.) overnight at 4° C. Plates were washed 3× with PBS/Tween-20 and blocked with 200 μl of blocking buffer (0.1 M NaPO₄, 0.1 M NaCl, 0.1% gelatin, 0.01% Tween) for 1 hr at RT. Human serum previously determined to contain C1q (Quidel, San Diego, Calif.) was diluted 1:50 in PBS. After 1 hr of blocking, plates were washed and 100 μl of diluted serum was added to each well and incubated for 2 hr at RT on a shaker. Following three washes, 100 μl A of 0.1 μg/ml chicken polyclonal anti-human C1q antibody (AbCam, Cambridge, Mass.) was added to each well and incubated for 1 hr at RT. Plates were again washed and incubated with 100 μA of a rabbit polyclonal antibody to chicken Ig-Y—HRP diluted 1:4000 (AbCam) for 1 hr at RT. Plates were washed and developed with TMB for 5 min, followed by 50 μA of 1 M H₂SO₄ to stop the reaction, and then read at 450 nm.

murine IL-21 = murine IL-21 (murine, UniProt Q9ES17 18-146); assay: cell-based or functional assay
[3] = target: T3, human gamma (γ) common chain expressed on CHO cells (human, UniProt P31785 23-369); assay: cell-based ELISA on CHO cells transiently expressing human gamma common chain; HRP anti-human IgG, A450
T3 construct: whole, on cells; Control protein; also called human IL-2R-γ common subunit; human γ-common
T3 sequence (looked up): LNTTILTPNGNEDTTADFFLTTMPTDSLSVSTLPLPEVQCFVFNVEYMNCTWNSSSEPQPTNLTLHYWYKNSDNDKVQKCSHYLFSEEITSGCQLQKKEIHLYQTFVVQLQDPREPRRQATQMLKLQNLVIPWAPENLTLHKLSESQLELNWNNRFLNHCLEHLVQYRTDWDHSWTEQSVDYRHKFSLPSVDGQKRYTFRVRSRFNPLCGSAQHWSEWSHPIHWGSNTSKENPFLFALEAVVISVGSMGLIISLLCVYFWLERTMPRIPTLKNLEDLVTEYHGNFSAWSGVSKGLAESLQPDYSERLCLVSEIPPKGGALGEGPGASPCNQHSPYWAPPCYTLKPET
Protocol: (§1) FIG. 6(a-l) depicts the binding of 21 anti-IL-21R IgGs to CHO cells transiently expressing human IL-21R (FIGS. 6a-c), rat IL-21R (FIGS. 6d-f), cynomolgus monkey IL-21R (FIGS. 6g-i), and human gamma common chain (FIGS. 6j-1). CHO cells were transiently transfected with IL-21R or the control gamma common chain, and binding was detected with HRP-conjugated anti-human IgG in a cell-based ELISA.
(§2) A subset of binding proteins was tested for binding to rat, cynomolgus monkey, human IL-21R, or human IL-2R-γ common subunit expressed transiently on the surfaces of CHO-PA-Dukx cells. Cells were transfected 48 hr prior to the assay. On the day of the assay, cells were washed gently 5× in PBS containing 0.9 mM CaCl₂ and 0.45 mM MgCl₂ (PBS/CaMg) on an automated plate washer (Titertek, Huntsville, Ala.), and blocked for 1 hr at RT in PBS/CaMg/5% nonfat dry milk. Conditioned media from transiently expressed anti-IL-21R IgGs were serially diluted in blocking buffer and added to the cells in the blocked plates for 1 hr at RT. Cells were washed 5× with PBS/CaMg and then incubated with horseradish peroxidase-conjugated anti-human IgG for 1 hr at RT. Cells were then washed 10× in PBS/CaMg and all of the wash buffer was removed. Cells were incubated with 100 μl TMB until the color reaction reached saturation, stopped with 100 μl of 0.18 M H₂SO₄, and read at A450 on a Perkin Elmer ENVISION™ plate reader.

[4] = target: T4, human IL-21R expressed on cells (human, UniProt Q9HBE5 20-538); assay: cell-based ELISA on CHO cells transiently expressing human IL-21R; HRP anti-human IgG, A450
T4 construct: also called human IL-21R-BaF3; human IL-21R-TF1
Protocol: as §1, §2

[5] = target: T3, human gamma (γ) common chain expressed …; assay: cell ELISA, CHO cells
Protocol: as §2

[6] = target: T5, rat IL-21R expressed on cells (rat); assay: cell ELISA, CHO cells
T5 construct: whole, on cells
Protocol: as §2

[7] = target: T6, cynomolgus monkey IL-21R expressed on cells (cynomolgus monkey, UniProt G7Q0S8 41-559); assay: cell ELISA, CHO cells
T6 construct: whole, on cells
Protocol: as §2

[8] = target: T4, human IL-21R expressed on cells; assay: cell ELISA, CHO cells
Protocol: as §2

[9] = target: T6, cynomolgus monkey IL-21R expressed on …; assay: cell-based ELISA on CHO cells transiently expressing cynomolgus monkey IL-21R; HRP anti-human IgG, A450
Protocol: as §1, §2

[10] = target: murine IL-21R expressed on cells (murine, UniProt Q9JHX3 20-529); assay: cell-based or functional assay
[11] = target: T4, human IL-21R expressed on cells; assay: cell-based or functional assay
human soluble IL-4R = target: T7, human soluble IL-4R (human, UniProt P24394 26-232, limits assumed); assay: SPR, Ab captured
T7 construct: also called human sIL-4R
Protocol: (§3) The specificity of binding of a subset of transiently expressed anti-IL-21R binding proteins (here antibodies) was tested on a BIACORE™ 2000 surface plasmon resonance instrument. Anti-human-IgG, anti-murine immunoglobulin antibodies, and murine IL-21R-H/F were immobilized onto a research-grade carboxymethyl-dextran chip (CM5) using standard amine coupling. The sensor chip surface was activated with EDC/NHS for 7 min at a flow rate of 20 μl/min. The first flow cell was used as reference surface to correct for bulk refractive index, matrix effects, and nonspecific binding. […] Remaining activated groups were blocked with 1.0 M ethanolamine (pH 8.0). The molecular weights of the anti-human IgG and the anti-murine IgG were both 150 kD, and the molecular weight of the IL-21R monomer was 27 kD.
(§4) Conditioned media containing anti-IL-21R antibodies and antibody controls (murine anti-human IL-2Rβ and murine anti-human IL-4R(R&D Systems, Minneapolis, Minn.); human anti-human IL-13 (Wyeth, Cambridge, Mass.)) were diluted in HBS/EP buffer supplemented with 0.2% bovine serum and injected onto all four flow cells of the BIACORE™ chip, capturing 500-700 (RU) of antibody on the species-appropriate capture antibody. Following a 5 sec washing period, 50 nM solutions of a positive control protein (murine IL-21R-H/F), two human proteins related to IL-21R (human IL-2Rβ and human sIL-4R(R&D Systems)), or an unrelated His/FLAG-tagged protein (human IL-13-H/F) were injected over the captured antibodies on the chip. The association and dissociation phases were monitored for 120 and 180 sec, respectively, followed by two 5 μl injections of glycine (pH 1.5) to regenerate a fully active capturing surface. All binding experiments were done at 25° C. in HBS/EP buffer. Blank and buffer effects were subtracted for each sensorgram using double referencing.

human IL-2Rβ = target: T8, human IL-2Rβ (human, UniProt P14784 27-239); assay: SPR, Ab captured
T8 sequence (looked up): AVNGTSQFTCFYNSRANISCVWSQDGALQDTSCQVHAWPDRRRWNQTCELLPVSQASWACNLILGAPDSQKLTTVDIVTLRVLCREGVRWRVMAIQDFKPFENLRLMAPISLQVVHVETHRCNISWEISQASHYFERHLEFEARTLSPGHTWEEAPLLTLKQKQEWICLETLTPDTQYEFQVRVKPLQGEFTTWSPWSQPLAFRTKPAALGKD
Protocol: as §3, §4

human IL-13-His/FLAG = target: T9, human IL-13-His/FLAG (human, UniProt P35225 35-146, limits assumed); assay: SPR, Ab captured
T9 construct: Unrelated His/FLAG-tagged control; also called human IL-13-H/F
Protocol: as §3, §4

[12] = target: T5, rat IL-21R expressed on cells; assay: cell-based ELISA on CHO cells transiently expressing rat IL-21R; HRP anti-human IgG, A450
Protocol: as §1, §2

[13] = target: T5, rat IL-21R expressed on cells; assay: cell-based or functional assay

T4 sequence (Q9HBE5 20-538 limits assumed): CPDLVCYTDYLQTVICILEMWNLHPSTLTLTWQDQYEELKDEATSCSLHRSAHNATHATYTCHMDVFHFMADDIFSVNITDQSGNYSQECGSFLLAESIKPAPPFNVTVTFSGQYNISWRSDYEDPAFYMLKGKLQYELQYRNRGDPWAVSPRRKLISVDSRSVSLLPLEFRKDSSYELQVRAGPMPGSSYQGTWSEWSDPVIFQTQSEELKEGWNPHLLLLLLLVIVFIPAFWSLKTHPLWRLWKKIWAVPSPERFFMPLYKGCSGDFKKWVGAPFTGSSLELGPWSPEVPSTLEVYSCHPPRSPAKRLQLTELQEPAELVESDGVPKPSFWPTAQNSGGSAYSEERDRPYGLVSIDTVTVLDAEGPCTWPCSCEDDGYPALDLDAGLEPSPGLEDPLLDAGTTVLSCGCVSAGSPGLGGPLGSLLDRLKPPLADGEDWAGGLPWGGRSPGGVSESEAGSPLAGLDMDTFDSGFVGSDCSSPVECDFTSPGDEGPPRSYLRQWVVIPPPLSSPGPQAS
T9 sequence (P35225 35-146 limits assumed): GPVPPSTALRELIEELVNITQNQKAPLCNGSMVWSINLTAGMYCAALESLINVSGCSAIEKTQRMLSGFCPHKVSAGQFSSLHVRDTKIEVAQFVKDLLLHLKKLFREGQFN
T2 sequence (P02745 23-245, chain 1 of 3): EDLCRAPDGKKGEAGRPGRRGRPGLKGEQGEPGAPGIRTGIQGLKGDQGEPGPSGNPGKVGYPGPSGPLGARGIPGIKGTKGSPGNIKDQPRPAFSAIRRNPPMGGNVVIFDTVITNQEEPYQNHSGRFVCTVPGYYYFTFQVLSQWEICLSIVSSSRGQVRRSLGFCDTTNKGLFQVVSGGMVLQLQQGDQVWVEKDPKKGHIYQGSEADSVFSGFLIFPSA
T2 sequence (P02746 28-253, chain 2 of 3): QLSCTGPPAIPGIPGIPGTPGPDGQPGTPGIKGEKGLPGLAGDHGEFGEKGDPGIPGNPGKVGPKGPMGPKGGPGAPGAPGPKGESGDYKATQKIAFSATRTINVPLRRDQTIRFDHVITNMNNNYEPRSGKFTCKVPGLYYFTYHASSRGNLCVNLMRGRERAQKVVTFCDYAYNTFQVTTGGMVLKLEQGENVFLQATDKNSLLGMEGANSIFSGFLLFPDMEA
T2 sequence (P02747 29-245, chain 3 of 3): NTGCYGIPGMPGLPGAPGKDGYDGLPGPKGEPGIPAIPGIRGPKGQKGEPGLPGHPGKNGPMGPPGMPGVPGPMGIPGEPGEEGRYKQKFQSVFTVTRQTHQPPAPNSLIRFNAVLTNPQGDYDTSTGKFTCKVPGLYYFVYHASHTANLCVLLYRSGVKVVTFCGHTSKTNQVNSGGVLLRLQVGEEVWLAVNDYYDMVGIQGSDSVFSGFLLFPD

B1: 18A5 parent scFv (scFv)
scFv: QVQLQESGPGLVKTSETLSLTCAVSGYSISSGYYWGWIRQPPGKGLEWIGSISHTGNTYYNPPLKSRVTISVDTSKNQFSLKLSSVTAADTAVYYCARGGGISRPEYWGKGTLVTVSSGGGGSGGGGSGGGGSALSSELTQDPPVSVALGQTVTLTCQGDSLRTYYASWYQQKSGQAPILLLYGKHKRPSGIPDRFSGSTSGDTASLTITGAQAEDEADYYCNSRDSSGNPHVLFGGGTQLTVL
notes: scFv format of parental 18A5 (not germlined); different molecule from the 18A5 IgG coated on the plate; also called parental 18A5 scFv; scFv parental clone 18A5
binding result [1]: binds

B3: murine IL-21R-Fc (Fc fusion, not shown: a dimerising Fc or GST)
chain: not shown
Murine IL-21R-BaF3 Neutralization IC50 (murine IL-21): 0.04 nM

B4: AbJ (antibody, IgG1, V domains shown)
VH: QVQLQESGPGLVKPSETLSLTCAVSGYSISSGYYWGWIRQPPGKGLEWIGSISHTGNTYYNPPLKSRVTISVDTSKNQFSLKLSSVTAADTAVYYCARFMGFGRPEYWGQGTLVTVSS
VL: SSELTQDPAVSVALGQTVRITCQGDSLRTYYASWYQQKPGQAPVLVIYGKHKRPSGIPDRFSGSSSGNTASLTITGAQAEDEADYYCNSRDSSGNPHVLFGGGTQLTVL
notes: As for AbA: IgG1/lambda, CDR3 graft, residue limits derived; also called VH3/VLP
binding result [3]: no binding (tested: 13 nM)
EC50 (read off the curve) [4]: ~0.3 nM
A450 (13 nM Ab) [5]: 0.126 A450
A450 (13 nM Ab) [6]: 1.26 A450
A450 (13 nM Ab) [7]: 1.27 A450
A450 (13 nM Ab) [8]: 1.22 A450
EC50 (read off the curve) [9]: ~0.3 nM
Murine IL-21R-BaF3 Proliferation IC50 [10]: 0.4 nM
Human IL-21R-BaF3 Proliferation IC50 [11]: 0.65 nM
Human IL-21R-TF1 Proliferation IC50 [11]: 4.6 nM
binding result (human soluble IL-4R): no binding (tested: 50 nM)
binding result (human IL-2Rβ): no binding (tested: 50 nM)
binding result (human IL-13-His/FLAG): no binding (tested: 50 nM)
EC50 (read off the curve) [12]: ~0.4 nM

B6: AbW (antibody, human IgG1, V domains shown)
VH: QVQLQESGPGLVKPSETLSLTCAVSGYSISSGYYWGWIRQPPGKGLEWIGSISHTGNTYYNPPLKSRVTISVDTSKNQFSLKLSSVTAADTAVYYCARFMGFGRPEYWGQGTLVTVSS
VL: SSELTQDPAVSVALGQTVRITCQGDSLRTYYASWYQQKPGQAPVLVIYGKHKRPSGIPDRFSGSSSGNTASLTITGAQAEDEADYYCVTRSVKGNPHVLFGGGTQLTVL
IC50, rat T cell proliferation, experiment 1 [13]: 159 nM
IC50, rat T cell proliferation, experiment 2 [13]: 94.7 nM

Further lines, results first:

binding result [2]: no binding
B2: AbX (antibody, human IgG1)
VH: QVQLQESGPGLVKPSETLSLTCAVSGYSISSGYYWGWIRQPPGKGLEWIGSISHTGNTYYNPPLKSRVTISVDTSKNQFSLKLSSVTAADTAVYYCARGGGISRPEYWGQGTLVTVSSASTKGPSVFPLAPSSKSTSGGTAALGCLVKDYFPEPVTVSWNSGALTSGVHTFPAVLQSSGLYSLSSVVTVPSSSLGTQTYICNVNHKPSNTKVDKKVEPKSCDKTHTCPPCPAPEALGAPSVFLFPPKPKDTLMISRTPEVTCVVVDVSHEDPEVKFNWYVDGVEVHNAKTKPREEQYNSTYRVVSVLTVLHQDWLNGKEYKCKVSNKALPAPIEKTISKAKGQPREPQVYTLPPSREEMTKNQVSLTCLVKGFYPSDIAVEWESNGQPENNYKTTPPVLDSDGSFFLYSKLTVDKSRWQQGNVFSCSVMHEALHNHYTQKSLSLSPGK
VL: SSELTQDPAVSVALGQTVRITCQGDSLRTYYASWYQQKPGQAPVLVIYGKHKRPSGIPDRFSGSSSGNTASLTITGAQAEDEADYYCVARSNKGNPHVLFGGGTQLTVLGQPKAAPSVTLFPPSSEELQANKATLVCLISDFYPGAVTVAWKADSSPVKAGVETTTPSKQSNNKYAASSYLSLTPEQWKSHRSYSCQVTHEGSTVEKTVAPTECS
notes: Same variable domains as AbT; residue limits derived as for m29; also called VHPDM/VL9; copies: 2 + 2

IC50, rat T cell proliferation, experiment 1 [13]: 70.5 nM
IC50, rat T cell proliferation, experiment 2 [13]: 59.2 nM
B5: AbV (antibody, human IgG1, V domains shown)
VH: QVQLQESGPGLVKPSETLSLTCAVSGYSISSGYYWGWIRQPPGKGLEWIGSISHTGNTYYNPPLKSRVTISVDTSKNQFSLKLSSVTAADTAVYYCARFMGFGRPEYWGQGTLVTVSS
VL: SSELTQDPAVSVALGQTVRITCQGDSLRTYYASWYQQKPGQAPVLVIYGKHKRPSGIPDRFSGSSSGNTASLTITGAQAEDEADYYCVARSVVGNPHVLFGGGTQLTVL
